From IntAct's records for PubMed 21828050

B1: Kelch-like protein 7 (Homo sapiens), Q8IXQ5 (parent)
chain: MAASGVEKSSKKKTEKKLAAREEAKLLAGFMGVMNNMRKQKTLCDVILMVQERKIPAHRVVLAAASHFFNLMFTTNMLESKSFEVELKDAEPDIIEQLVEFAYTARISVNSNNVQSLLDAANQYQIEPVKKMCVDFLKEQVDASNCLGISVLAECLDCPELKATADDFIHQHFTEVYKTDEFLQLDVKRVTHLLNQDTLTVRAEDQVYDAAVRWLKYDEPNRQPFMVDILAKVRFPLISKNFLSKTVQAEPLIQDNPECLKMVISGMRYHLLSPEDREELVDGTRPRRKKHDYRIALFGGSQPQSCRYFNPKDYSWTDIRCPFEKRRDAACVFWDNVVYILGGSQLFPIKRMDCYNVVKDSWYSKLGPPTPRDSLAACAAEGKIYTSGGSEVGNSALYLFECYDTRTESWHTKPSMLTQRCSHGMVEANGLIYVCGGSLGNNVSGRVLNSCEVYDPATETWTELCPMIEARKNHGLVFVKDKIFAVGGQNGLGGLDNVEYYDIKLNEWKMVSPMPWKGVTVKCAAVGSIVYVLAGFQGVGRLGHILEYNTETDKWVANSKVRAFPVTSCLICVVDTCGANEETLET

Variants of: B1
Conditions: with cul3_human CUL3, Q13618

Variant	effect of a mutation on the interaction
MAASGVEKSSKKKTEKKLAAREEAKLLAGFMGVMNNMRKQKTLCDVILMVQERKIPAHRVVLAAASHFFNLMFTTNMLESKSFEVELKDAEPDIIEQLVEFAYTARISVNSNNVQSLLDAANQYQIEPVKKMCVDFLKEQVDASNCLGISVLTECLDCPELKATADDFIHQHFTEVYKTDEFLQLDVKRVTHLLNQDTLTVRAEDQVYDAAVRWLKYDEPNRQPFMVDILAKVRFPLISKNFLSKTVQAEPLIQDNPECLKMVISGMRYHLLSPEDREELVDGTRPRRKKHDYRIALFGGSQPQSCRYFNPKDYSWTDIRCPFEKRRDAACVFWDNVVYILGGSQLFPIKRMDCYNVVKDSWYSKLGPPTPRDSLAACAAEGKIYTSGGSEVGNSALYLFECYDTRTESWHTKPSMLTQRCSHGMVEANGLIYVCGGSLGNNVSGRVLNSCEVYDPATETWTELCPMIEARKNHGLVFVKDKIFAVGGQNGLGGLDNVEYYDIKLNEWKMVSPMPWKGVTVKCAAVGSIVYVLAGFQGVGRLGHILEYNTETDKWVANSKVRAFPVTSCLICVVDTCGANEETLET [A153T]	disrupting interaction
MAASGVEKSSKKKTEKKLAAREEAKLLAGFMGVMNNMRKQKTLCDVILMVQERKIPAHRVVLAAASHFFNLMFTTNMLESKSFEVELKDAEPDIIEQLVEFAYTARISVNSNNVQSLLDAANQYQIEPVKKMCVDFLKEQVDASNCLGISVLVECLDCPELKATADDFIHQHFTEVYKTDEFLQLDVKRVTHLLNQDTLTVRAEDQVYDAAVRWLKYDEPNRQPFMVDILAKVRFPLISKNFLSKTVQAEPLIQDNPECLKMVISGMRYHLLSPEDREELVDGTRPRRKKHDYRIALFGGSQPQSCRYFNPKDYSWTDIRCPFEKRRDAACVFWDNVVYILGGSQLFPIKRMDCYNVVKDSWYSKLGPPTPRDSLAACAAEGKIYTSGGSEVGNSALYLFECYDTRTESWHTKPSMLTQRCSHGMVEANGLIYVCGGSLGNNVSGRVLNSCEVYDPATETWTELCPMIEARKNHGLVFVKDKIFAVGGQNGLGGLDNVEYYDIKLNEWKMVSPMPWKGVTVKCAAVGSIVYVLAGFQGVGRLGHILEYNTETDKWVANSKVRAFPVTSCLICVVDTCGANEETLET [A153V]	disrupting interaction

Variants of: B1
Conditions: with cul3_human CUL3, Q13618
Remark: another data set of the same source

Variant	effect of a mutation on the interaction
MAASGVEKSSKKKTEKKLAAREEAKLLAGFMGVMNNMRKQKTLCDVILMVQERKIPAHRVVLAAASHFFNLMFTTNMLESKSFEVELKDAEPDIIEQLVEFAYTARISVNSNNVQSLLDAANQYQIEPVKKMCVDFLKEQVDASNCLGISVLVECLDCPELKATADDFIHQHFTEVYKTDEFLQLDVKRVTHLLNQDTLTVRAEDQVYDAAVRWLKYDEPNRQPFMVDILAKVRFPLISKNFLSKTVQAEPLIQDNPECLKMVISGMRYHLLSPEDREELVDGTRPRRKKHDYRIALFGGSQPQSCRYFNPKDYSWTDIRCPFEKRRDAACVFWDNVVYILGGSQLFPIKRMDCYNVVKDSWYSKLGPPTPRDSLAACAAEGKIYTSGGSEVGNSALYLFECYDTRTESWHTKPSMLTQRCSHGMVEANGLIYVCGGSLGNNVSGRVLNSCEVYDPATETWTELCPMIEARKNHGLVFVKDKIFAVGGQNGLGGLDNVEYYDIKLNEWKMVSPMPWKGVTVKCAAVGSIVYVLAGFQGVGRLGHILEYNTETDKWVANSKVRAFPVTSCLICVVDTCGANEETLET [A153V]	decreasing interaction
